How the values were obtained:
[1] = Molecular assays (HPLC, mass spectrometry, isoelectric focusing, immunoassay) of recovered aerosol versus initial formulation; type: physicochemical
Description: During testing, it was useful to ensure that the composition of the aerosol emanating from the device was the same in all discernable aspects as the formulation filled into the device.

[2] = Droplet size of the thermal inkjet aerosol measured by Malvern laser; type: physicochemical; settings: hGH 2 mg/mL, 6% w/w PEG 3000, 0.1% w/v TWEEN 20, unbuffered
[3] = test system: receptors introduced to the cells specific to the test protein; experiment: Transgenic cell bioassay of recovered aerosol versus formulation before aerosolization; type: cell-based; settings: hGH 2 mg/mL, 6% w/w PEG 3000, 0.1% w/v TWEEN 20; thermal inkjet, aerosol condensed and recovered; FIG. 1
Experimental: Proteins were tested with a transgenic cell bioassays with receptors introduced to the cells specific to the test protein. These bioassays were appropriate for indicating the functional effectiveness of the protein. Molecular assays were performed to indicate the primary or tertiary structure of the molecule. Assays used included size exclusion high performance liquid chromatography, reverse phase high performance liquid chromatography, mass spectrometry, isoelectric focusing and immunoassay.
Each protein was formulated at a concentration that was calculated to be of clinical significance such that the plume of aerosol contained the required amount of therapeutic. Humectant was added to the protein formulation which was filled into an inkjet cartridge and fired from the cartridge.
Resistor surfaces and nozzles were inspected by Scanning Electron Microscopy to establish the cleanliness of the surfaces and subsequently the effectiveness of the humectant and surfactant. When humectant and surfactant concentrations were suitable, the aerosol from the device was collected, analyzed, and compared with the solution before aerosolization.
Human growth hormone (hGH) was formulated at 2 mg/mL with 6% w/w PEG 3000 and 0.1% w/v TWEEN® 20. The formulation was unbuffered and no additional salts were added to the formulation. […]

## CN1CCCC1c1cccnc1 (centres unmarked) [Nicotine, reference compound]
[1]; nicotine up to 50% w/w in water with 0.1% w/v TWEEN 20
  comparison of solution during or after dosage (aerosolization): no measurable difference

## Human growth hormone
[2]
  average droplet size of formulation aerosol: 8 μm
[3]
  bioassay comparison of formulation before and after aerosolization: no measurable difference
[1]; hGH 2 mg/mL, 6% w/w PEG 3000, 0.1% w/v TWEEN 20, thermal inkjet, aerosol condensed and recovered
  HPLC comparison of formulation before and after aerosolization: no measurable difference

## Insulin
[1]; insulin 10 mg/mL, 6% w/v PEG 8000, 0.1% w/v TWEEN 80, thermal inkjet, FIG. 2
  reverse-phase HPLC comparison (retention time, peak shape) before, after recovered and after repeated aerosolization: no measurable differences

Source: patent US20090022669A1, “COMPOSITIONS FOR PROTEIN DELIVERY VIA THE PULMONARY ROUTE” (VAPOTRONICS, INC., priority 2001, published 2009)
